What was measured:
[1] = target: recombinant glycosylated HIV-1 IIIB gp120 (baculovirus) (HIV-1 IIIB) (UniProt P04578)
[2] = target: recombinant glycosylated HIV-1 IIIB gp120 (baculovirus) (HIV-1 IIIB) (UniProt P04578); test: SPR

| Substance | IC50 of neutralization of HIV-1 (derived from pNL4-3) in Jurkat cells [1] [nM] | Ka [2] [M⁻¹] | Kd [2] [nM] | koff [2] [s⁻¹] |
| --- | --- | --- | --- | --- |
| native KAA-1 lectin from Kappaphycus alvarezii (natural protein) | 9.2 | – | – | – |
| His-tagged recombinant KAA-1 (Kappaphycus alvarezii agglutinin 1) (natural protein) | 12.9 | – | – | – |
| recombinant KAA-1 after removal of the His tag by thrombin (natural protein) | – | 1.61e+09 | 0.622 | 0.000529 |
| native KAA-2 lectin from Kappaphycus alvarezii (natural protein) | 7.3 | – | – | – |
